According to patent US20140056907A1 (Regeneron, published 2014):

T1: human ASIC3 (human, UniProt Q9UHC3 1-531)
T1 construct: whole, on cells; Expressed on 3T3 cells (3T3/hASIC3) or HEK293 cells (HEK/hASIC3-QCells); also called hASIC3
T1 sequence (looked up): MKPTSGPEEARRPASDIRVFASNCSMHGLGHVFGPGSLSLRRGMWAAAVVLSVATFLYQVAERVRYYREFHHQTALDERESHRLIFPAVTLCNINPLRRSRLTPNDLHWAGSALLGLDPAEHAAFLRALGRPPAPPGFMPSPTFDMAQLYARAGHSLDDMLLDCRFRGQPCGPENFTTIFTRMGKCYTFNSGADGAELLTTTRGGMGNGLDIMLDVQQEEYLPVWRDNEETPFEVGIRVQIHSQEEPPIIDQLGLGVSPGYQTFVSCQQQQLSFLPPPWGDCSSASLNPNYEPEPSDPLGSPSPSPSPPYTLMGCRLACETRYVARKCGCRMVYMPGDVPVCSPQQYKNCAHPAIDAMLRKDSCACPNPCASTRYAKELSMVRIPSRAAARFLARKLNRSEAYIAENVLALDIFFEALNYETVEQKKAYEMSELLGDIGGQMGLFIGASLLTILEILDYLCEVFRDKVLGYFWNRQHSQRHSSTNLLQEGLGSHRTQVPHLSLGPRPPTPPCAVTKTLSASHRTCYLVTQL

T2: human ASIC1/ASIC3 channels (co-expressed human ASIC1a and human ASIC3) (human, UniProt Q9UHC3 1-531)
T2 construct: whole, on cells; 3T3 cells co-expressing both subunits; also called 3T3/hASIC1/3; 3T3-hASIC1/ASIC3
T2 sequence 1: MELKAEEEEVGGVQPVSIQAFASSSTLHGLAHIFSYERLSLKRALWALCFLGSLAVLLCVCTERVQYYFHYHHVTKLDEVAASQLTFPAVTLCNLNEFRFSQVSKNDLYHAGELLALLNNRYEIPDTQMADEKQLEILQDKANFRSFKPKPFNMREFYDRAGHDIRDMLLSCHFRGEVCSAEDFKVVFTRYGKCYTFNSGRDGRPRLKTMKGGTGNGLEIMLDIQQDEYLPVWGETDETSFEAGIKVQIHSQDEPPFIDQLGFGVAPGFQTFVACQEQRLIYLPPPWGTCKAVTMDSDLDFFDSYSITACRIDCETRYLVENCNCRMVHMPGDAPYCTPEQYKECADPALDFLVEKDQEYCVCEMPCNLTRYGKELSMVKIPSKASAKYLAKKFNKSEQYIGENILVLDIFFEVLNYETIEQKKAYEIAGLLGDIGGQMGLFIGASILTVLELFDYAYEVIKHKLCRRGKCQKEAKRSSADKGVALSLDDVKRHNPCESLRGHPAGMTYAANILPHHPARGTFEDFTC
T2 sequence 2: T1 sequence (looked up)

T3: human ASIC1 (human, UniProt P78348 1-528)
T3 construct: Ion channel subunit expressed on 3T3 (3T3/hASIC1) or HEK293 cells (HEK/hASIC1; HEK293 CL:1F10 transient); also called hASIC1; human ASIC1a
T3 sequence: T2 sequence 1

B1: H3M7102N (antibody, V domains shown)
VH: EVQLLASGGGLVQPGGSLRLSCAASGFTFSSFAMSWVRQAPGKGLEWVSGISGSGGSTYYADSVKGRFTISRDNSKNTLYLQMNSLRAEDTAAYYCAKEAYKWQPWGQGIRVTVSS
VL: DIQMTQSPSTLSASVGDRVSITCRASQSISSWLAWYQQKPGKAPKLLIYKASNLDSGVPSRFSGSGSGTDFTLTISSLQPDDFATYYCQQYNSYSYTFGQGTKLEIK
notes: Chimeric: human variable, mouse constant domains; H3M prefix marks the Fc, isotype not spelled out
B2: H3M6726N (antibody, V domains shown)
VH: EVQLLESGGVLVQPGGSLRLSCAASGFNFNNYDMSWVRQAPGKGLEWVSVISASGRNTYYADSVKGRFTISRDNSKISLYLQMNSLRPEDTAVYYCAKDHLVHYYYGMDVWGQGTTVTVSS
VL: DIMMTQSPLSLSVTPGEPASISCRSSQSLLHSNGYNYLDWYLQKSGQSPHLLIYLGSNRASGVPDRFSGSGSGTDFTLKISRVEAEDGGVYYCMQALQTPRTFGQGTKVEIK
notes: as for B1

Experiments:
[1] = biological target: T1, human ASIC3; assay: FACS, 3T3/hASIC3 cells, 10 nM antibody
From the text: (§1) For these experiments, four cell lines were constructed: (a) a mouse fibroblast 3T3 cell line stably transfected to overexpress full length human ASIC3 (3T3/hASIC3; amino acids 1-531 of NCBI accession number NP_{—}004760.1), (b) a 3T3 cell line stably transfected to co-express full length human ASIC1a and human ASIC3 (3T3/hASIC1/3; amino acids 1-528 of NCBI accession number NP_{—}001086.2 and amino acids 1-531 of NCBI accession number NP_{—}004760.1), (c) […] a stably transfected 3T3 cell line expressing the full-length mouse ASIC3 channel (3T3/mASIC3; amino acids 1-530 of NCBI accession number NP_{—}892045.2), and (d) a 3T3 cell line stably transfected to co-express full length mouse ASIC1a and mouse ASIC3 (3T3/mASIC1/3; amino acids 1-526 of NCBI accession number NP_{—}033727 and amino acids 1-530 of NCBI accession number NP_{—}892045.2). Antibody binding was determined using flow cytometry (FACS).
(§2) To perform the FACS binding experiments, adherent cells were collected with cold Millipore Accutase 3-5 minutes, spun and resuspended in ice-cold FACS buffer (PBS, 2% HI-FBS and 0.09% Na-azide). Anti-ASIC1 antibody at final concentrations of 10 nM was added for 20-30 minutes on ice. Cells were washed with 900 μL ice-cold FACS buffer, spun, and resuspended in 100 μL ice-cold FACS buffer. A secondary antibody which recognizes human Fc (Jackson Immuno Research, #109-136-098) and is conjugated to allophycocyanin, was then added to the cell mixture at a final concentration of 2.5 ug/mL. After incubating for 20 minutes on ice, the cells were washed and resuspended in FACS buffer, then sorted and analyzed on a flow cytometer (FACSCanto II, BD Biosciences, San Jose, Calif.) to determine relative binding by the candidate antibodies to the tested cell lines. Histograms of cells stained with anti-ASIC1 antibodies were compared with those of cells stained with secondary antibody alone. Percentage of ASIC1 signal over secondary antibody alone was calculated using FlowJo software (Tree Star, Ashland, Oreg.).

[2] = biological target: T2, human ASIC1/ASIC3 channels …; assay: FACS, 3T3/hASIC1/3 cells, 10 nM antibody
From the text: as §1, §2

[3] = biological target: T3, human ASIC1; assay: FACS titration, 3T3/hASIC1 cells

Binder	binding result [1]	binding result [2]	EC50 [3] [nM]
B1	binds	binds	5.4
B2	binds	binds	2.6
